Values of other authors in article PMC6070697.

Legend:
Assay in all cases: kinetics
Details in all cases: enzyme turning over with acetyl-CoA and an amine substrate
Glu47 = Glu47 (UniProt position 82, FFFKDEPLNTF)
Glu34 = Glu34 (UniProt position 34, HYYPEEPLTAG)
Glu26 = test system: Glu26

For “Arylalkylamine N-acetyltransferase A (Dm-AANATA; dopamine N-acetyltransferase) (Drosophila melanogaster)”, the pKa (Glu47) is given as “approximately pH 7.5”.

For “Agmatine N-acetyltransferase (Dm-AgmNAT; formerly Dm-AANATL8) (Drosophila melanogaster)”, the pKa (Glu34) is listed as “approximately pH 7.5”.

In the case of “Arylalkylamine N-acetyltransferase like 7 (Dm-AANATL7) (Drosophila melanogaster)”, the pKa (Glu26) is given as “approximately pH 7.5”.
